We go through 18 proteins from the PETadex activity labels (doi:10.1021/acscatal.2c02275).

To fix the notation:
B1: unnamed (protein)
chain: MANPYERGPDPTESSIEAVRGPFAVAQTTVSRLQADGFGGGTIYYPTDTSQGTFGAVAISPGFTAGQESIAWLGPRIASQGFVVITIDTITRLDQPDSRGRQLQAALDHLRTNSVVRNRIDPNRMAVMGHSMGGGGALSAAANNTSLEAAIPLQGWHTRKNWSSVRTPTLVVGAQLDTIAPVSSHSEAFYNSLPSDLDKAYMELRGASHMVSNTPDTTTAKYSIAWLKRFVDDDLRYEQFLCPAPDDFAISEYRSTCPF
B2: unnamed (protein)
chain: B1 chain with M210T
B3: unnamed (protein)
chain: B1 chain with M210H
B4: unnamed (protein)
chain: B1 chain with M210F
B5: unnamed (protein)
chain: B1 chain with W156H, M210L
B6: unnamed (protein)
chain: B1 chain with M210R
B7: unnamed (protein)
chain: B1 chain with W156A, M210L
B8: unnamed (protein)
chain: B1 chain with M210V
B9: unnamed (protein)
chain: B1 chain with L93F, Q95Y, R205C, M210L, S251C
B10: unnamed (protein)
chain: B1 chain with M210P
B11: unnamed (protein)
chain: B1 chain with M210Q
B12: unnamed (protein)
chain: B1 chain with F63A, M210L
B13: unnamed (protein)
chain: B1 chain with F63Y, M210L
B14: unnamed (protein)
chain: B1 chain with W156F, M210L
B15: unnamed (protein)
chain: B1 chain with I179Y, M210L
B16: unnamed (protein)
chain: B1 chain with M210E
B17: unnamed (protein)
chain: B1 chain with M210C
B18: unnamed (protein)
chain: B1 chain with M210D

Residue numbers refer to the chain shown, from its start.

Substrate in this data set: gfPET
Kind of data set: Proxy for plastic degradation [Relative activity]. The following applies: pH 8.
B1: the “Proxy for plastic degradation” value was 74%.
As to B2, the “Proxy for plastic degradation” value amounted to 48%.
Under B3 stands 54%.
In the case of B4 it was 58%.
Under B5 stands 1%; under B6, 95%; under B7, 5%.
For B8, the “Proxy for plastic degradation” value amounted to 61%.
Consider B9, for which the “Proxy for plastic degradation” value was found to be 70%.
As for B10, the “Proxy for plastic degradation” value is 16%.
On to B11, for which the “Proxy for plastic degradation” value was 94%.
In the case of B12 it was 22%; in that of B13, 65%.
In the case of B14 it was 8%; in that of B15, 26%.
With B16, the “Proxy for plastic degradation” value was found to be 6%.
For the protein B17, the “Proxy for plastic degradation” value is 8%.
As for B18, the “Proxy for plastic degradation” value turned out to be 66%.
